Publication doi:10.1101/2024.05.08.592267 (2024)

Target: P69P4
Experiment: BLI

B1: biotinylated natural Ara h 2 (natural protein)
chain: RQQWELQGDRRCQSQLERANLRPCEQHLMQKIQRDEDSYGRDPYSPSQDPYSPSQDPDRRDPYSPSPYDRRGAGSSQHQERCCNELNEFENNQRCMCEALQQIMENQSDRLQGRQQEQQFKRELRNLPQQCGLRAPQRCDLEVESGGRDRY
modifications: biotin (position not given)
For B1, the Kd was 3.88 pM.
